The values below come from US20100021384A1 (INSTITUT PASTEUR, published 2010).

In experiment [1] the target is T1, GFAP (glial fibrillary acidic protein) from normal human brain (human, UniProt P14136 1-432).
T1 construct: Purchased protein purified from human brain; coated on ELISA plates and used in solution for the KD determination; also called hGFAP
In words: competition ELISA (Friguet method) after heating VHH at 75 C for 15 min and cooling at 4 C for 20 min. On the procedure:
(§1) The binding affinity of VHHs was determined as described by Friguet et al., 1985. Briefly, various concentrations of GFAP were incubated in solution overnight at 4° C. with a known quantity of VHH until equilibrium was reached. The VHH concentration had been determined by preliminary ELISA calibrations. 100 μl of solution was transferred to a well of a microtiter plate previously coated with GFAP and was incubated for 20 min at 4° C. The plates were washed with PBS-Tween 0.1%. VHHs were detected with rabbit anti-His tag antibodies (eBiosciences, San Diego, Calif.) followed by adding β-galactosidase-conjugated goat anti-rabbit Igs (Biosys, Compiègne, France) and 4-methylumbelliferyl β-D galactoside (Sigma Aldrich, Saint-Quentin Fallavier, France). Fluorescence was read at 460 nm, after excitation at 355 nm. KD was estimated from the slope of the regression curve obtained by plotting the reciprocal of the fraction of bound antibody versus the reciprocal of the molar concentration of antigen.
The heat denaturation of VHH-E9 was adapted to the method described in Olichon et al., 2007. VHHs are re-suspended in PBS/NaCl 300 mM and are heated for 15 minutes at 75° C. then cooled down at 4° C. for 20 minutes. The binding affinity of VHHs was determined by ELISA as described in Example 2 above.
(ELISA stands for enzyme-linked immunosorbent assay.)

The target in experiment [2] is T1, GFAP (glial fibrillary acidic protein) …. In words: competition ELISA in solution (Friguet method), GFAP in solution, GFAP-coated plate. On the procedure:
as §1

Experiment [3] deals with T2, murine GFAP (in murine brain extracts and mouse brain astrocytes) (murine, UniProt P03995 1-430).
T2 construct: Endogenous intracellular protein; identified on blots by the 46 kDa band size and in tissue by astrocyte labelling; also called 46 Kda band
In words: Western blot of murine brain extracts. On the procedure: Murine brain proteins (300 mg) were extracted in a potter with 600 μl of NuPage LDS sample buffer (Invitrogen) and kept for […] at 70° C. An aliquot was diluted 1:10 (v/v) with the same sample buffer then treated at 70° C. for 10 min. Following separation by polyacrylamide gel electrophoresis (PAGE) using NuPAGE Novex 4-12% Bis-tris gel (Invitrogen), semi-dry transfer onto Hybond-C (Amersham) and western blotting were carried out using the Xcell II blot module (Invitrogen). Prior to the immunochemical reaction, membranes were blocked in a 4% skimmed milk solution. […] Finally, peroxidase activity was visualized using a chemiluminescent kit (Amersham).
The specificity of the different VHHs was tested by ELISA and by Western blot. All the VHHs were specific for GFAP by ELISA (FIG. 5) and could detect at least 40 ng of protein.
(Immunoblotting shows a protein as a band on a membrane.)

The target in experiment [4] is T1, GFAP (glial fibrillary acidic protein) …. In words: competition ELISA (Friguet method), GFAP.

What is called Kd is a measure of binding affinity in units of concentration.

T2 sequence (P03995 whole entry): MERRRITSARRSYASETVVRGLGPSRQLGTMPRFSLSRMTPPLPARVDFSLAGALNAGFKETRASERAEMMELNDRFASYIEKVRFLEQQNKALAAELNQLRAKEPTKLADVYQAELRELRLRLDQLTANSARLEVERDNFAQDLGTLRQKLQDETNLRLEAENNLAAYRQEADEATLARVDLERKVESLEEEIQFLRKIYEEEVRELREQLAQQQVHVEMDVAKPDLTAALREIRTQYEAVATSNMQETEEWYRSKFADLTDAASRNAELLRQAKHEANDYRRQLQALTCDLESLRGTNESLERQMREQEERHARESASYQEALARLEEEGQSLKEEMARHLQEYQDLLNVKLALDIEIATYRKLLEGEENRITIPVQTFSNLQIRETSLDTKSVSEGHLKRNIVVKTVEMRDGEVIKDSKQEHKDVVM
T1 sequence (P14136 whole entry): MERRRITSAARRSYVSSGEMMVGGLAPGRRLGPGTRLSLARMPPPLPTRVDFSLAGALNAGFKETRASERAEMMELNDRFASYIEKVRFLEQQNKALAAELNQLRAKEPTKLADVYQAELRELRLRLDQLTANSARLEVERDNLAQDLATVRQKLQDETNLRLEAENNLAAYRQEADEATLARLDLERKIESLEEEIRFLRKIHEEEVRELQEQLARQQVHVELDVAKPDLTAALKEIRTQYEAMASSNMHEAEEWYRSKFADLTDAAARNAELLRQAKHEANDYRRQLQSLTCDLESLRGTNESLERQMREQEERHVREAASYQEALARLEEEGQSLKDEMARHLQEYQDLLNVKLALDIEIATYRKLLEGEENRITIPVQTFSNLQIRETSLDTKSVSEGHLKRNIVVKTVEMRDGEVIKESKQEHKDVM

B1: VHH-E9 (VHH)
VHH: DVQLQVSGGGSVQPGGSLRLSCAASGFTFSNYAMYWLRQAPGKGIEWVSRIGPGGSHTEYADSVKGRFTISRDNAKNTLSLQMNSLKPEDTAVYYCAITQQGSGRGQGTQVTVSS
notes: Alpaca VHH selected by ribosome display against human GFAP; expressed in E. coli periplasm from pET22 with a His-tag and purified by IMAC; same molecule; also called anti-GFAP VHH-E9; native VHH-E9; not shown: His-tag (His6) from pET22 expression
In the case of B1, the Kd in experiment [1] turned out to be 3.8 nM; in experiment [2], 5.6 nM. Moreover, the binding result in experiment [3] is “binds”.

B2: VHH-E9 SS-free (VHH, not shown: small tags and cut ends)
VHH: DVQLQVSGGGSVQPGGSLRLSSAASGFTFSNYAMYWLRQAPGKGIEWVSRIGPGGSHTEYADSVKGRFTISRDNAKNTLSLQMNSLKPEDTAVYYSAITQQGSGRGQGTQVTVSSAAALEHHHHHH
notes: VHH-E9 in which the disulfide-forming cysteines Cys 22 and Cys 96 were replaced by serine by site-directed mutagenesis; also called cysteine-free derivative of VHH-E9
As to B2, in experiment [4], the Kd worked out at 12 nM and the “fold reduction of affinity against native VHH-E9” value stood at 2 fold.

B3: VHH-A10 (VHH)
VHH: DVQLRASGGGLVQPGGSLRLSCAASGFTFSNYAMYWLRQAPGKGIEWVSRIGPGGSHTEYADSVKGRFTISRDNAKNTLSLQMNSLKPEDTAVYYCAITQQGSGRGQETQVTVSSAAALEHHHHHH
notes: Alpaca VHH selected by ribosome display against human GFAP; expressed in E. coli periplasm from pET22 with a His-tag and purified by IMAC; also called anti-GFAP VHH-A10; not shown: His-tag from pET22 expression
In experiment [2], B3 yielded a Kd of 3.1 nM. In addition, in experiment [3], the binding result is reported as “binds”.

B4: VHH-E3 (VHH)
VHH: DVQLQVSGGGSVQPGGSLRLSCAAPGFTFSNYAMYWLRQAPGKGIEWVSRIGPGGSHTEYADSVKGRFAISRDNAKNTLSLQMNSLKPEDTAAYYCAITQQGSGRGRGTQVTVSS
notes: Alpaca VHH selected by ribosome display against human GFAP; expressed in E. coli periplasm from pET22 with a His-tag and purified by IMAC; also called anti-GFAP VHH-E3; not shown: His-tag from pET22 expression
In the case of B4, the binding result in experiment [3] is on record as “binds”.
